Source: patent EP4585618A1 (Jiangsu Hengrui Pharmaceuticals Co., Ltd., dated 2025)

Legend:
[1] = target: T1, full-length human ILT4 protein overexpressed on cells (human, UniProt Q8N423 22-597); experiment: flow cytometry competition on CHO-S/ILT4 cells; competitor CF647-labelled HLA-G tetramer; Assay 2
T1 construct: also called CHO-S/ILT4; ILT4 stably transfected cell strain

[2] = target: T1, full-length human ILT4 protein …; experiment: flow cytometry competition on CHO-S/ILT4 cells; competitor CF647-labelled HLA-G tetramer; Assay 4
[3] = target: T2, His-tagged ILT4 protein extracellular domain: ILT4-His (human, UniProt Q8N423 22-460); experiment: ELISA, coated ILT4-His 1 µg/mL; Assay 2
T2 construct: Expressed in 293 cells; also called human ILT4-His protein

[4] = target: T2, His-tagged ILT4 protein extracellular …; experiment: ELISA, coated ILT4-His 1 µg/mL; Assay 5
[5] = target: T2, His-tagged ILT4 protein extracellular …; experiment: ELISA, coated ILT4-His 1 µg/mL; Assay 4
[6] = target: T1, full-length human ILT4 protein …; experiment: flow cytometry competition on CHO-S/ILT4 cells; competitor CF647-labelled HLA-G tetramer; Assay 3
[7] = target: T2, His-tagged ILT4 protein extracellular …; experiment: ELISA, coated ILT4-His 1 µg/mL; Assay 3
[8] = target: T2, His-tagged ILT4 protein extracellular …; experiment: ELISA, coated ILT4-His 1 µg/mL; Assay 1
[9] = target: T1, full-length human ILT4 protein …; experiment: flow cytometry competition on CHO-S/ILT4 cells; competitor CF647-labelled HLA-G tetramer; Assay 1
[10] = target: T2, His-tagged ILT4 protein extracellular …; experiment: phage ELISA
[11] = target: T3, His-tagged ILT2 protein extracellular domain: ILT2-His (human, UniProt Q8NHL6 24-461); experiment: phage ELISA
T3 construct: The entry is the whole construct, with the His tag; also called human ILT2 protein

[12] = target: T1, full-length human ILT4 protein …; experiment: flow cytometry (FACS) on CHO-S/ILT4 cells; Assay 1
[13] = target: T2, His-tagged ILT4 protein extracellular …; experiment: SPR (Biacore), antibody captured on Protein A chip, ILT4-His as analyte, 1:1 model
[14] = target: T4, LILRA2-His (Acro, LI2-H82E9) (human, UniProt Q8N149 24-449); experiment: ELISA, coated protein 1 µg/mL, antibody 10 µg/mL
T4 construct: Bought protein. 'Human' stands at the head of the list of coated proteins; not shown: His tag

[15] = target: T5, LILRA5-His (Acro, LI5-H82E1) (human, UniProt A6NI73 42-268); experiment: ELISA, coated protein 1 µg/mL, antibody 10 µg/mL
T5 construct: Bought protein. 'Human' stands at the head of the list of coated proteins; not shown: His tag

[16] = target: T6, LILRA3-His (Acro, LI3-H82E0) (human, UniProt Q8N6C8 24-439); experiment: ELISA, coated protein 1 µg/mL, antibody 10 µg/mL
T6 construct: Bought protein. 'Human' stands at the head of the list of coated proteins; not shown: His tag

[17] = target: T7, LILRA6-His (Acro, LI6-H82E2) (human, UniProt Q6PI73 24-447); experiment: ELISA, coated protein 1 µg/mL, antibody 10 µg/mL
T7 construct: Bought protein. 'Human' stands at the head of the list of coated proteins; not shown: His tag

[18] = target: T8, LILRB5-His (Acro, CDC-H5220) (human, UniProt O75023 24-458, limits assumed); experiment: ELISA, coated protein 1 µg/mL, antibody 10 µg/mL
T8 construct: Bought protein. 'Human' stands at the head of the list of coated proteins; not shown: His tag

[19] = target: T9, His-tagged ILT3 protein extracellular domain: ILT3-His (human, UniProt Q8NHJ6 22-259); experiment: ELISA, coated protein 1 µg/mL, antibody 10 µg/mL
T9 construct: The entry is the whole construct, with the His tag

[20] = target: T2, His-tagged ILT4 protein extracellular …; experiment: ELISA, coated protein 1 µg/mL, antibody 10 µg/mL
[21] = target: T3, His-tagged ILT2 protein extracellular …; experiment: ELISA, coated protein 1 µg/mL, antibody 10 µg/mL
[22] = target: T10, LILRA4-His (SinoBiological, 16058-H08H) (human, UniProt P59901 24-446); experiment: ELISA, coated protein 1 µg/mL, antibody 10 µg/mL
T10 construct: Bought protein. 'Human' stands at the head of the list of coated proteins; not shown: His tag

[23] = target: T11, LILRA1-His (Acro, LI1-H82E8) (human, UniProt O75019 17-461); experiment: ELISA, coated protein 1 µg/mL, antibody 10 µg/mL
T11 construct: Bought protein. 'Human' stands at the head of the list of coated proteins; not shown: His tag

[24] = target: T4, LILRA2-His (Acro, LI2-H82E9); experiment: ELISA, coated protein 1 µg/mL
[25] = target: T5, LILRA5-His (Acro, LI5-H82E1); experiment: ELISA, coated protein 1 µg/mL
[26] = target: T6, LILRA3-His (Acro, LI3-H82E0); experiment: ELISA, coated protein 1 µg/mL
[27] = target: T7, LILRA6-His (Acro, LI6-H82E2); experiment: ELISA, coated protein 1 µg/mL
[28] = target: T8, LILRB5-His (Acro, CDC-H5220); experiment: ELISA, coated protein 1 µg/mL
[29] = target: T9, His-tagged ILT3 protein extracellular …; experiment: ELISA, coated protein 1 µg/mL
[30] = target: T3, His-tagged ILT2 protein extracellular …; experiment: ELISA, coated protein 1 µg/mL
[31] = target: T10, LILRA4-His (SinoBiological, 16058-H08H); experiment: ELISA, coated protein 1 µg/mL
[32] = target: T11, LILRA1-His (Acro, LI1-H82E8); experiment: ELISA, coated protein 1 µg/mL

T1 sequence (Q8N423 other isoform, or with tags, fused parts or gaps limits assumed): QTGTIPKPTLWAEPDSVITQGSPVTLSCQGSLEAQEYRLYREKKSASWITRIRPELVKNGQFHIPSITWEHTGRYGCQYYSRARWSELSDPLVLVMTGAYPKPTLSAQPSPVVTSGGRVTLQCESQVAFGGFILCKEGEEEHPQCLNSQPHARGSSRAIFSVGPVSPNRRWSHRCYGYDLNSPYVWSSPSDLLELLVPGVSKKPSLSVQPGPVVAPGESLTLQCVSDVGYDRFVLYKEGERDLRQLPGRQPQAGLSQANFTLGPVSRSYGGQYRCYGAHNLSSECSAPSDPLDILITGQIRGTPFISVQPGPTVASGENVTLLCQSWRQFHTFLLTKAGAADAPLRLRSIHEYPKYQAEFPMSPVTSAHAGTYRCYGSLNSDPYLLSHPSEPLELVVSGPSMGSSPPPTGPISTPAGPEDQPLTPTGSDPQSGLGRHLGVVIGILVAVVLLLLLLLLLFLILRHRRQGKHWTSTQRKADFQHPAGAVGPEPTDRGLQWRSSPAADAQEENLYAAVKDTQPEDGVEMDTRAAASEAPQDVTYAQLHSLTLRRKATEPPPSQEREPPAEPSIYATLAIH
T2 sequence (Q8N423 other isoform, or with tags, fused parts or gaps limits assumed): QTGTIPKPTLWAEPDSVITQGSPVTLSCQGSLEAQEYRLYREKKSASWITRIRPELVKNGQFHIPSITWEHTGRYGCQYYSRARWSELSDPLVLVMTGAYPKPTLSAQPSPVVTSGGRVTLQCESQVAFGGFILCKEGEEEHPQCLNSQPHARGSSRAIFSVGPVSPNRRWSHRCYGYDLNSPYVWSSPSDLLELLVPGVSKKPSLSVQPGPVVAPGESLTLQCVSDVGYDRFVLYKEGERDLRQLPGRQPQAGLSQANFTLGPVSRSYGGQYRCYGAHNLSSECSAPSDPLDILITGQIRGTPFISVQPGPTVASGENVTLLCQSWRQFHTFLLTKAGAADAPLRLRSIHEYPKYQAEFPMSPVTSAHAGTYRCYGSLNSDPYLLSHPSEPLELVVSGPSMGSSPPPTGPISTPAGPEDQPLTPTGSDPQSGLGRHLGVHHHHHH
T3 sequence (Q8NHL6 other isoform, or with tags, fused parts or gaps): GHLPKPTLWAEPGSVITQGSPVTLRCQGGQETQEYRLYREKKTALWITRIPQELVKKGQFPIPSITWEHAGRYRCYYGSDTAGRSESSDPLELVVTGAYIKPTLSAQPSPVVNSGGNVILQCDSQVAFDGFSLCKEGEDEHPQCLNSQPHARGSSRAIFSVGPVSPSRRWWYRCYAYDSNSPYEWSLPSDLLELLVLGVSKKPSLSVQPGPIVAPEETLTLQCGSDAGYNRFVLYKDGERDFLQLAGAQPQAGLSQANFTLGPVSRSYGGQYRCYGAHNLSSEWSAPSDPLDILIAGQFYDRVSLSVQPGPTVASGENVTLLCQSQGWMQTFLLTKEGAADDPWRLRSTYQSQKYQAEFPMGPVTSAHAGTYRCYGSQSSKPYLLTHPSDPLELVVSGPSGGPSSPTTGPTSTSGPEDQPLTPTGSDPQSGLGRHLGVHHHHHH
T6 sequence (Q8N6C8 24-439 limits assumed): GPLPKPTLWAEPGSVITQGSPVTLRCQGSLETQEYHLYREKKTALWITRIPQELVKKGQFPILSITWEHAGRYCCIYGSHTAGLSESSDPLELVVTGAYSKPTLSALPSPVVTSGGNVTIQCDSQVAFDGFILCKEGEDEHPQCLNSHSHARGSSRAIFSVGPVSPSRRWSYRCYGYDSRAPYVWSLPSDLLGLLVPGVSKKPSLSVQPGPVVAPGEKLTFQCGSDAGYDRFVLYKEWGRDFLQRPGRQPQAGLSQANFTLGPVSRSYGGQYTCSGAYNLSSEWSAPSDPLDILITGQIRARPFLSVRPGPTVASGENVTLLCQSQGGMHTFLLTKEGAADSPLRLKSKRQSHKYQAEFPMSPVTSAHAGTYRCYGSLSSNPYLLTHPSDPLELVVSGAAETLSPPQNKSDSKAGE
T10 sequence (P59901 24-446 limits assumed): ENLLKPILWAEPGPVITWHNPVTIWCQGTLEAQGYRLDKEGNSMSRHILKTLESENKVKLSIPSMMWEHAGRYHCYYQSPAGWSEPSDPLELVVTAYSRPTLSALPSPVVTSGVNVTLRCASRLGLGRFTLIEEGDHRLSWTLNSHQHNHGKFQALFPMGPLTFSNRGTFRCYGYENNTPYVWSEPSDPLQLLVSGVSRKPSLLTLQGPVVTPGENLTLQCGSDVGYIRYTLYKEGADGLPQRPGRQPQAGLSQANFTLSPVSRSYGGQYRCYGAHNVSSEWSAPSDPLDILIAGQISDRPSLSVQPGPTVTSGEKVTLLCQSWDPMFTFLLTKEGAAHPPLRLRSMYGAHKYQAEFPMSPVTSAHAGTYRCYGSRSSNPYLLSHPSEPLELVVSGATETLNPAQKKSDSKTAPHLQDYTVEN
T11 sequence (O75019 17-461 limits assumed): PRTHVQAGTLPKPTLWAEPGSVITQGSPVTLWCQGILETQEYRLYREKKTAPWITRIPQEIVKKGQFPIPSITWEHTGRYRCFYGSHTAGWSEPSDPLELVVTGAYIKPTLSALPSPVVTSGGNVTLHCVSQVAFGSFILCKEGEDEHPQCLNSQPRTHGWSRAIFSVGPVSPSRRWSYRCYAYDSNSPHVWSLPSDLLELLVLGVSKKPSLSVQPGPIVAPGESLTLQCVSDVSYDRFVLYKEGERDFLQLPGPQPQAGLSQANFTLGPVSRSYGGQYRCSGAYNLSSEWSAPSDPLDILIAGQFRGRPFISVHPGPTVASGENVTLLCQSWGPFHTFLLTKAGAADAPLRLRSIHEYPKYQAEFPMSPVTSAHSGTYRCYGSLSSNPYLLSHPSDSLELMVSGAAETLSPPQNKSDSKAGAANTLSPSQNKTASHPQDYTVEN
T7 sequence (Q6PI73 24-447 limits assumed): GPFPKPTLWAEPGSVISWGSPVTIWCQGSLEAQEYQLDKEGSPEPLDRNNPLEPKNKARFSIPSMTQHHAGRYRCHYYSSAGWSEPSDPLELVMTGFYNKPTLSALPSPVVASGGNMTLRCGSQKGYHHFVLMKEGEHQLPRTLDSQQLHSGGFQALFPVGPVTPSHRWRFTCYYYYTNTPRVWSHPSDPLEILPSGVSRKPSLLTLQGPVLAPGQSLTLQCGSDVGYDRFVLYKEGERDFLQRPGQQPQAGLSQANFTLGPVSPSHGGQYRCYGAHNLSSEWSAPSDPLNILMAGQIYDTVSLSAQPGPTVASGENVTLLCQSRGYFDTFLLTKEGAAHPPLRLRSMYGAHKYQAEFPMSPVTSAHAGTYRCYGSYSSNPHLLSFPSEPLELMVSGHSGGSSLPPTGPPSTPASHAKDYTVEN
T8 sequence (O75023 24-458 limits assumed): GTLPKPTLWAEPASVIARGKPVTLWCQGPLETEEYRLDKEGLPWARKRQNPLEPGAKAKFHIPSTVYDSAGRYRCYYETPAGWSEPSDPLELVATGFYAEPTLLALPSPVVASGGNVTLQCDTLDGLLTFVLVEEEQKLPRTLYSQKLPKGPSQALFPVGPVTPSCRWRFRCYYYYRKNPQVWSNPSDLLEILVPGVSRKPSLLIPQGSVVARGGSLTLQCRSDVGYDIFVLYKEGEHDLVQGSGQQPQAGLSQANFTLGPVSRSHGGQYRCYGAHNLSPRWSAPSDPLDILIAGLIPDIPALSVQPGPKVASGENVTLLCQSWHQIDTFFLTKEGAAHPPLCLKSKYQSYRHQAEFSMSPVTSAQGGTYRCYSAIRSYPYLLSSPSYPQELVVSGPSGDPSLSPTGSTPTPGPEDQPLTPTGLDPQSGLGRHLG
T4 sequence (Q8N149 24-449 limits assumed): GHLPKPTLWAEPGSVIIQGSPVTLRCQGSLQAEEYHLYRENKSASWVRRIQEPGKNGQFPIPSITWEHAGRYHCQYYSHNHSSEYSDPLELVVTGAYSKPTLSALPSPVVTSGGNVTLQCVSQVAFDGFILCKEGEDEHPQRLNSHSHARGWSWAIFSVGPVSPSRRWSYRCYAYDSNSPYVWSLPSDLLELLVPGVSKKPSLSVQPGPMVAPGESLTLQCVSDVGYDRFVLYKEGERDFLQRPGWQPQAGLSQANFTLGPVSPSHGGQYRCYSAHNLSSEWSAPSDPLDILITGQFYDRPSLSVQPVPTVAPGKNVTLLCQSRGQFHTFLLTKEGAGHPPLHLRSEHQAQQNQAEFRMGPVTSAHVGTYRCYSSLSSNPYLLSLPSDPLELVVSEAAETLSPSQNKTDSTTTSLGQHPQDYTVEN
T5 sequence (A6NI73 42-268 limits assumed): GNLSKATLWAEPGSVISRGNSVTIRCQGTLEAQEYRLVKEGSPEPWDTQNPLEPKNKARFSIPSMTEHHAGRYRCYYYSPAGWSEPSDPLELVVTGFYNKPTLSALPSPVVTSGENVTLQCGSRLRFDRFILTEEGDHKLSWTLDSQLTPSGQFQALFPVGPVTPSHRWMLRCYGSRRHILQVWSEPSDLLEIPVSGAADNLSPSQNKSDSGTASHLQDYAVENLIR

B1: positive control antibody JTX (sequences from WO2019126514A2) (antibody, human IgG4 S228P, kappa, V domains shown)
VH: QITLKESGPTLVKPTQTLTLTCTFSGFSLNTYAMGVSWIRQPPGKALEWLASIWWNGNKYNNPSLKSRLTVTKDTSKNQVVLTMTNMDPVDTATYYCAHSRIIRFTDYVMDAWGQGTLVTVSS
VL: DIQMTQSPSSLSTSVGDRVTITCRASEDIYNDLAWYQQKPGKAPKLLIYNANSLHTGVASRFSGSGSGTDFTFTISSLQPEDVATYFCQQYYDYPLTFGQGTKLEIKR
notes: also called JTX-8064
IC50 [1]: 0.12 µg/mL
IC50 [2]: 0.061 µg/mL
EC50 [3]: 0.0826 µg/mL
Top [3]: 1.7 absorbance at 450 nm
EC50 [4]: 0.0801 µg/mL
Top [4]: 1.14 absorbance at 450 nm
EC50 [5]: 0.083 µg/mL
IC50 [6]: 0.12 µg/mL
EC50 [7]: 0.0293 µg/mL
EC50 [8]: 0.0826 µg/mL
IC50 [9]: 0.022 µg/mL

B2: P2 (fully human-derived antibody clone from phage library screening) (antibody, V domains shown)
VH: QVQLVQSGAEVKKPGSSVKVSCKASGYTFTSYDISWVRQAPGQGLEWMGGIIPIFGTANYAQKFQGRVTITADESTSTAYMELSSLRSEDTAVYYCTAGIFLATAYWGQGTLVTVSS
VL: DIQMTQSPSSMSASVGDRVTISCQASQDINNYLNWYQQRPGQAPKLLIYDASTLETGVPSRFSGSGSGTYFTLTITSLQPADVATYYCQQYENVPITFGQGTRLEIK
binding result [10]: binds
binding result [11]: no binding

B3: positive control antibody MK (sequences from WO2018187518A1) (antibody, human IgG4 S228P, lambda, V domains shown)
VH: EVQLQQWGAGLLKPSETLSLTCAVYGGSFSGYYWSWIRQPPGKGLEWIGEINHAGSTNYNPSLKSRVTISVDTSKNQFSLKLSSVTAADTAVYYCARLPTRWVTTRYFDLWGRGTLVTVSS
VL: ESVLTQPPSVSGAPGQRVTISCTGSSSNIGAGYDVHWYQQLPGTAPKLLIYGDSNRPSGVPDRFSVSKSGASASLAITGLQAEDEADYYCQSFDNSLSAYVFGGGTQLTVLG
IC50 [1]: 0.138 µg/mL
IC50 [2]: 0.092 µg/mL
EC50 [12]: 0.031 µg/mL
IC50 [6]: 0.138 µg/mL
Kd [13]: 19.1 nM
koff [13]: 0.00863 s⁻¹
kon [13]: 452000 M⁻¹ s⁻¹
IC50 [9]: 0.031 µg/mL

B4: humanized antibody huP2-E3 (antibody, human IgG4 S228P, kappa, F234A L235A, V domains shown)
VH: EVQLVQSGAEVKKPGASVKVSCKASGYTFTDYYMNWVKQAPGQRLEWMGDINPNSGGTSYNQKFKGRVTITVDKSGSTAYMELSSLRSEDTAVYYCARGGVTTVVATYWYFDVWGQGTTVTVSS
VL: DIQMTQSPSSLSASVGDRVTITCRASENIYSNLAWYQQKPGKSPKLLVYAATNVADGVPSRFSGSGSGTDYTLTISSLQPEDFATYYCQQFWDTPFTFGQGTKLEIKR
notes: Full chains; The constant region is hIgG1(LALA) or hIgG4(LALA) with a kappa CL; also called P2-E3H6L2
absorbance at 450 nm [14]: 0.055 absorbance at 450 nm
absorbance at 450 nm [15]: 0.0466 absorbance at 450 nm
absorbance at 450 nm [16]: 0.0476 absorbance at 450 nm
absorbance at 450 nm [17]: 0.047 absorbance at 450 nm
absorbance at 450 nm [18]: 0.0523 absorbance at 450 nm
absorbance at 450 nm [19]: 0.0699 absorbance at 450 nm
absorbance at 450 nm [20]: 1.04 absorbance at 450 nm
absorbance at 450 nm [21]: 0.0541 absorbance at 450 nm
absorbance at 450 nm [22]: 0.0605 absorbance at 450 nm
absorbance at 450 nm [23]: 0.0532 absorbance at 450 nm
EC50 [12]: 0.0307 µg/mL
binding result [24]: no binding (tested: 10 µg/mL)
binding result [25]: no binding (tested: 10 µg/mL)
binding result [26]: no binding (tested: 10 µg/mL)
binding result [27]: no binding (tested: 10 µg/mL)
binding result [28]: no binding (tested: 10 µg/mL)
binding result [29]: no binding (tested: 10 µg/mL)
binding result [30]: no binding (tested: 10 µg/mL)
binding result [31]: no binding (tested: 10 µg/mL)
binding result [32]: no binding (tested: 10 µg/mL)
Kd [13]: 1.26 nM
koff [13]: 0.00127 s⁻¹
kon [13]: 1.01e+06 M⁻¹ s⁻¹
IC50 [9]: 0.012 µg/mL

B5: chimeric antibody ChP1-E11 (antibody, human IgG4 S228P, kappa, F234A L235A, V domains shown)
VH: EVQLQQSGPELVKPGASVKMSCQASGYTFTDYSIHWVKQSRGASLEWIGYINPNNGVTNYNQKFKGKATLTVNKSSSTAYMELRSLTSEDSAVYYCAREGDSVTTIVVHWYFDVGGTGTTVTVSS
VL: DIQMTQSPASLSVSLGETVTITCRASENIYSNLVWYQQKQGKFPQLLVYAAINLVDGVPSRFSGSGSGTQYSLKINSLQSEDFGSYYCQQFWDTPLTFGAGTKLEIKR
notes: Murine variable regions with hIgG4(LALA) and CL constant regions; also called M P1-E11
EC50 [5]: 0.041 µg/mL
